The text below walks through data of patent publication US20110053139A1.

Like-named read-outs stand apart in the source and are kept apart here.

For test [1], the target named is Coxsackie virus B4 (JVB strain) viral particles (Coxsackie virus B4 (JVB strain)) (UniProt P08292).
Test [2] shares this target. Put plainly: SH-SAW biosensor (325 MHz), 204-4 mAb; Coxsackie B4 admixed with HSV-1 at equal concentration, low end of range.
Test [3] deals with Herpes Simplex virus type 1 (HSV-1), purified virus. Briefly: SH-SAW biosensor (325 MHz), 204-4 mAb; HSV-1 alone at 3.6×10^6/µl.
The target in test [4] is Coxsackie virus B4 (JVB strain) viral particles (Coxsackie virus B4 (JVB strain)) (UniProt P08292). Put plainly: SH-SAW biosensor (325 MHz), 204-4 mAb; Coxsackie B4 admixed with HSV-1 at equal concentration, high end of range.

UniProt P08292, sequence (P08292 2-849): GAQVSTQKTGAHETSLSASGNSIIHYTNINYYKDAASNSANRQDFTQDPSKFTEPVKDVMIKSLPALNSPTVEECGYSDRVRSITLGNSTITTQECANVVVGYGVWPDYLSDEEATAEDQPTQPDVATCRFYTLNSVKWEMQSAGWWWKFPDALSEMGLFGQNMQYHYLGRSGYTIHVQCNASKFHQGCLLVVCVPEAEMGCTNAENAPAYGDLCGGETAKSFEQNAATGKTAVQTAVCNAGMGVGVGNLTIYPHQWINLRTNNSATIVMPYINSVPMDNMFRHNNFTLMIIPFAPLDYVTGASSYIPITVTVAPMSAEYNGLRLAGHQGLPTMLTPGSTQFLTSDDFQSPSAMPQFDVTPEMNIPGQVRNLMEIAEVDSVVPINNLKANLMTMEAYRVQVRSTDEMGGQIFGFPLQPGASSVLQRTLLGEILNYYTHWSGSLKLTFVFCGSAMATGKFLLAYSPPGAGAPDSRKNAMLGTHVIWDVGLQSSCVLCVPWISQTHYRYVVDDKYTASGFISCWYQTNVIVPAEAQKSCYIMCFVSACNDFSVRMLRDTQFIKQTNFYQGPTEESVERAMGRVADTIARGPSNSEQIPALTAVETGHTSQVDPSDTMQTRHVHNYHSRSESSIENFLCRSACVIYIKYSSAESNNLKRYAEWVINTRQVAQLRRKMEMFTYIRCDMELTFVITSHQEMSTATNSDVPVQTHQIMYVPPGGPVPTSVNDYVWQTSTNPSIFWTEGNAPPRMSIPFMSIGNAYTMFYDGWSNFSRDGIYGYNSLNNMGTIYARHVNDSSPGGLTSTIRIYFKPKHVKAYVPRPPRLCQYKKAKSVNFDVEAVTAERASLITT

On to “IgG2a isotype monoclonal antibody (mAb) directed against the JVB strain of Coxsackie virus B4, produ”, for which the phase differential mass shift Δφ in test [1] was 0.95 to 6.99 degrees; in test [2], 1.09 degrees; in test [3], 0.64 degrees; in test [4] it was 7.24 degrees.
